B1: ClAgl29A (Cecembia lonarensis LW9) (protein)
chain: QVQYNPEKPARPEDHKPFFYKYNTRQLYEKFSDDLMQRAANDRKEIEKINQLGKYKPKKQSLDEHEVPEWFRDAKLGIFLDWGPWSVPGYAPPGSEGDTGGSYPDWYEFLMDFTYKAYHDSIWGEDFRRDDFLPLLHGNNFDSEEYAELAVQAGAKYMVPFARHHAGWTMWESKYTFRNAVEMGPKRDILKELVEASRKRDLKFGFYFSIAEWEYPVITKERVSQWDPYEDMAIFHDGMGLIPRPVPLASYFPARHDRMISGKIPVKDYFGDYMMPLFKEGVDLFDPDLVWYDGGWGTPANSSRVPELSAYFYNQAEGRKEVVINNRAGAYLDDSNLLKFNEVLKSGEHDKLLELYMKAEQIGDYLTPEYSIGNVDINEPWEVCRSISPAFGFNWTDNEENSLSSKELVKMFVGIVANNGNLLLVINPDGSGKLSNVQKDRLLDLGQWLKVNGEGIYSTRPWEIQESEGNFFTKSKNGEFIYIHILDKEKTTIEVPNLNPKNKGAISILGSKEKVLWENSGPITRITIPESFKDERNWPNKYGFTLKVAVK
B2: ClAgl29B (Cecembia lonarensis LW9) (protein)
chain: QENKEKDRTPSSKHLTDNILQPKRSSDFMAFKYEYSTVDLYREFSESIMDKARSEVEILESVNRQGRYKPNVESLKLHEVPEWFEDAKLGIFLDWGPWSVPGYAPLKGAEASTGGSYPDWYEFLMDNLYKEYHDEVWGADFRRDDFLPLLTGENFNSEEYMLLAVNSGAKYFVPFTKHHAGWTMWESEFTKRNAVEMGPGRDIYKELIEAGKKYDMKMGFYFSVSEWEYPVIVDQNLSQWDPVKNLAIFQDALGQIPRATPLASYFPALHDRMISGKIPVKDYFADYMIPSFKEAVDKYDPDLVWYDGGWGSPVSISRTMETSAYFYNQAEGKKDVVINNRAGSSLSEDDLIKVRDLMDSGKRDEAMKIYLSGQQLGDYGTPEFTIGDVDIQSKWEVCRSISPAFGYNWQDDEASSLSGEELIKLFVDIVANNGNLLLVISPDGSGKLPDIQKDRLLELGDWMKVNAESIHNTRPWKVQKENDKFFTKSKDGKSLFVHCTNWPGENLIINTPIEEGIKGIKLLGSDINLQFTKASNGNLEIPIPKDFQNNPSLISKYVWTFKIDLN

Assays:
purified protein [1] = substrate: C[C@@H]1O[C@@H](Oc2ccc([N+](=O)[O-])cc2)[C@@H](O)[C@H](O)[C@@H]1O; test: purified protein; details: McIlvaine buffer pH 5.5, 35 °C
purified protein [2] = substrate: O=[N+]([O-])c1ccc(O[C@@H]2O[C@@H](CO)[C@H](O)[C@@H](O)[C@@H]2O)cc1; test: purified protein; details: McIlvaine buffer pH 5.5, 35 °C

Row | Protein | Km (purified protein [1]) [µM] | kcat (purified protein [1]) [s⁻¹] | kcat/Km (purified protein [1]) [M⁻¹ s⁻¹] | Km (purified protein [2]) [µM] | kcat (purified protein [2]) [s⁻¹] | kcat/Km (purified protein [2]) [M⁻¹ s⁻¹]
1 | B1 | 279 ± 5 | 0.0658 ± 0.0008 | 236 ± 5 | 2010 ± 260 | 2 ± 0.11 | 1000 ± 80
2 | B2 | 240 ± 11 | 0.0844 ± 0.0019 | 352 ± 7 | 1790 ± 180 | 7.76 ± 0.41 | 4340 ± 220

From PMC9774334
